Results as given in patent US20090304686A1, “INTERFERING IN ACTIVATION OF AN IMMUNE CELL BY INFLUENCING INTERACTION OF LAIR AND COLLAGEN” (UNIVERSOTAIR MEDISCH CENTRUM UTRECHT, priority 2006, published 2009).

What was measured:
[1] = target: collagen I (purified, Sigma; acid-soluble human collagen type I in BIAcore) (human) (UniProt P02452)
[2] = target: collagen III (purified, Sigma; acid-soluble human collagen type III in BIAcore) (human) (UniProt P02461)
[3] = target: collagen III (purified, Sigma; acid-soluble human collagen type III in BIAcore) (human) (UniProt P02461); assay: SPR (BIAcore), equilibrium binding to immobilised collagen III
[4] = target: collagen III (purified, Sigma; acid-soluble human collagen type III in BIAcore) (human) (UniProt P02461); assay: SPR (BIAcore), biphasic dissociation from collagen III, component Koff1
[5] = target: collagen III (purified, Sigma; acid-soluble human collagen type III in BIAcore) (human) (UniProt P02461); assay: BIAcore, equilibrium binding to immobilized human collagen III
[6] = target: collagen I (purified, Sigma; acid-soluble human collagen type I in BIAcore) (human) (UniProt P02452); assay: SPR (BIAcore), biphasic dissociation from collagen I, component Koff1
[7] = target: collagen III (purified, Sigma; acid-soluble human collagen type III in BIAcore) (human) (UniProt P02461); assay: SPR (BIAcore), biphasic dissociation from collagen III, component Koff2
[8] = target: collagen I (purified, Sigma; acid-soluble human collagen type I in BIAcore) (human) (UniProt P02452); assay: SPR (BIAcore), equilibrium binding to immobilised collagen I
[9] = target: collagen I (purified, Sigma; acid-soluble human collagen type I in BIAcore) (human) (UniProt P02452); assay: BIAcore, equilibrium binding to immobilized human collagen I
[10] = target: collagen I (purified, Sigma; acid-soluble human collagen type I in BIAcore) (human) (UniProt P02452); assay: SPR (BIAcore), biphasic dissociation from collagen I, component Koff2
[11] = target: hLAIR-1-CD3ζ chimera on 2B4 NFAT-GFP reporter cells (human) (UniProt Q6GTX8)
hLAIR-1-CD3ζ chimera on 2B4 NFAT-GFP reporter cells (human), sequence (Q6GTX8 22-165, change not shown): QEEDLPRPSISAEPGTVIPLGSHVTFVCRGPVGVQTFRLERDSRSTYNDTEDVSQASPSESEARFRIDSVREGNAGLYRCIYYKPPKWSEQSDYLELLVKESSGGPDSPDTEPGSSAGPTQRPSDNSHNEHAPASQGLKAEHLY

[12] = target: hLAIR-1-CD3ζ chimera on 2B4 NFAT-GFP reporter cells (human) (UniProt Q6GTX8); remark: listed apart in the source

collagen III (purified, Sigma; acid-soluble human collagen type III in BIAcore) (human), sequence (P02461 154-1221): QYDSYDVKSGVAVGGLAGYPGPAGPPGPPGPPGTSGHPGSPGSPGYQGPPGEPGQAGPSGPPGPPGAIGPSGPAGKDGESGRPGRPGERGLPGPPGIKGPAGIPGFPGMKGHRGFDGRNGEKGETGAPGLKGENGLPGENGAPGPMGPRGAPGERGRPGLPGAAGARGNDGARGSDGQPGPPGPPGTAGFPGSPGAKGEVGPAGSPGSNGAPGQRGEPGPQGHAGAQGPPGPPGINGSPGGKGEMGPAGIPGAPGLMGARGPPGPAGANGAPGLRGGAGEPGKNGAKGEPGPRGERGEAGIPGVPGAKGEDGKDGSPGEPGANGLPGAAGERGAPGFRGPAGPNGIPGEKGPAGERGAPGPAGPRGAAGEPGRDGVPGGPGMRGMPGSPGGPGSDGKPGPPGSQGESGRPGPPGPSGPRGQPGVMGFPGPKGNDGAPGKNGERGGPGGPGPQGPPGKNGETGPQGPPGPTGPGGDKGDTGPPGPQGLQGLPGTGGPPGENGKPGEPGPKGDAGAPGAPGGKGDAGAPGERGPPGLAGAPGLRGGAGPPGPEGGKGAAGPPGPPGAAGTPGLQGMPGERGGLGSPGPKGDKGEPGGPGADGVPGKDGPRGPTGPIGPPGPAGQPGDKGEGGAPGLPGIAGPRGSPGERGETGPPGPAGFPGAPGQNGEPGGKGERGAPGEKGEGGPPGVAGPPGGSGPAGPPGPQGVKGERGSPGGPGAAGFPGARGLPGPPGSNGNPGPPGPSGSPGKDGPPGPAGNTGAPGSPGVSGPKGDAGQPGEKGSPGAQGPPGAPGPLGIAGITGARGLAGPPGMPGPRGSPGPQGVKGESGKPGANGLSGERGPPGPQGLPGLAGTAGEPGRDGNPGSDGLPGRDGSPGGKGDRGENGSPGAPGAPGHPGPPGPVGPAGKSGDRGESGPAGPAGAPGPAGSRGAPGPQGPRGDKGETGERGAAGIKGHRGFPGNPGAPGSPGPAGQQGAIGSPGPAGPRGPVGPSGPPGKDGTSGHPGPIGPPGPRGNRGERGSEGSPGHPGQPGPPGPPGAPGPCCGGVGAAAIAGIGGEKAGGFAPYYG

With Control IgG (Fc fusion) the percentage of GFP-positive hLAIR-1-CD3ζ reporter cells on Collagen I pre-incubated with Control IgG (55.0 without block) [1] was 50.3% and the percentage of GFP-positive hLAIR-1-CD3ζ reporter cells on Collagen III pre-incubated with Control IgG (45.3 without block) [2] was 42.8%.
Work on “LAIR-2-IgG (human LAIR-2 fused to the Fc region of human IgG1) (from UniProt Q6ISS4 22-152) (Fc fusion)” yielded a Bmax (mol/mol Col III) [3] of 10.7, a koff [4] of 0.0005 s⁻¹ and a Kd [5] of 41.4 nM. For the same substance, the koff [6] was 0.00083 s⁻¹, the koff [7] was 0.0046 s⁻¹ and the Bmax (mol/mol Col I) [8] was 10.4. It also gave a Kd [9] of 34.6 nM, a koff [10] of 0.0073 s⁻¹ and a percentage of GFP-positive hLAIR-1-CD3ζ reporter cells on Collagen I pre-incubated with LAIR-2-IgG (55.0 without block) [1] of 0.5%. It also gave a percentage of GFP-positive hLAIR-1-CD3ζ reporter cells on Collagen III pre-incubated with LAIR-2-IgG (45.3 without block) [2] of 8.4%.
Substance “collagen I (purified, Sigma; acid-soluble human collagen type I in BIAcore) (from UniProt P02452 162-1218; P08123 80-1119) (ligand)” has a percentage of GFP-positive reporter cells on Collagen I without block (parental cells 0.2) [11] of 55% and a percentage of GFP-positive reporter cells on coated Col I (parental cells 0.3) [12] of 33.8%.
